Read-outs that look alike come from different tables or passages of the source. Numbered stars: 1 amine (or outer) side, 2 acyl side, 3 side chain; on linkers, the order of the positions; unused ones are H or OH. Side chains are listed from the residue outwards. Ends that are not written are not given here. * marks the point of attachment. C18 diacid = O=C(O)CCCCCCCCCCCCCCCCC(=O)*; γGlu = O=C(O)[C@H](CCC(=O)[*:2])N[*:1]; AEEA = NCCOCCOCC(=O)O
Tests used:
[1] = target: CCK2 receptor (gastrin receptor); experiment: cell-based or functional assay
[2] = target: CCK2 receptor (gastrin receptor); experiment: cell-based or functional assay; remark: listed apart in the source

B1: N-α-#-Gastrin-17 (16-17) (peptide)
peptide: {C18 diacid-γGlu-AEEA-AEEA}-Asp-Phe-NH2
SMILES: NC(=O)[C@H](Cc1ccccc1)NC(=O)[C@H](CC(=O)O)NC(=O)COCCOCCNC(=O)COCCOCCNC(=O)CC[C@H](NC(=O)CCCCCCCCCCCCCCCCC(=O)O)C(=O)O
B1 was tested, and the “Relative Receptor Potency” value [1] was 0.

B2: [Leu15] Gastrin-17 (peptide)
peptide: QGPWLEEEEEAYGWLDF-NH2
modifications: ends and bridges not checked
B2 was tested, and the “Relative Receptor Potency” value [1] was 100 and the “Relative Receptor Potency” value [2] was 100.

B3: N-α-#-[Leu15] Gastrin-17 (12-17) (peptide)
peptide: {C18 diacid-γGlu-AEEA-AEEA}-YGWLDF-NH2
modifications: ends and bridges not checked
B3 was tested, and the “Relative Receptor Potency” value [1] was 7.

B4: N-α-#-[Leu15] Gastrin-17 (peptide)
peptide: {C18 diacid-γGlu-AEEA-AEEA}-QGPWLEEEEEAYGWLDF-NH2
modifications: ends and bridges not checked
For B4, the “Relative Receptor Potency” value [1] was 76 and the “Relative Receptor Potency” value [2] was 57.

B5: N-α-#-[Leu15] Gastrin-17 (13-17) (peptide)
peptide: {C18 diacid-γGlu-AEEA-AEEA}-GWLDF-NH2
SMILES: CC(C)C[C@H](NC(=O)[C@H](Cc1c[nH]c2ccccc12)NC(=O)CNC(=O)COCCOCCNC(=O)COCCOCCNC(=O)CC[C@H](NC(=O)CCCCCCCCCCCCCCCCC(=O)O)C(=O)O)C(=O)N[C@@H](CC(=O)O)C(=O)N[C@@H](Cc1ccccc1)C(N)=O
In the case of B5, the “Relative Receptor Potency” value [1] is reported as 6.

B6: [Lys14(N-ε-#),Leu15] Gastrin-17 (peptide)
peptide: QGPWLEEEEEAYGK([AEEA-AEEA-γGlu-C18 diacid])LDF-NH2
modifications: ends and bridges not checked
In the case of B6, the “Relative Receptor Potency” value [2] is reported as 0.

B7: [Lys3(N-ε-#),Leu15] Gastrin-17 (peptide)
peptide: QGK([AEEA-AEEA-γGlu-C18 diacid])WLEEEEEAYGWLDF-NH2
modifications: ends and bridges not checked
In the case of B7, the “Relative Receptor Potency” value [2] is reported as 60.

B8: N-α-#-[Leu15] Gastrin-17 (15-17) (peptide)
peptide: {C18 diacid-γGlu-AEEA-AEEA}-Leu-Asp-Phe-NH2
SMILES: CC(C)C[C@H](NC(=O)COCCOCCNC(=O)COCCOCCNC(=O)CC[C@H](NC(=O)CCCCCCCCCCCCCCCCC(=O)O)C(=O)O)C(=O)N[C@@H](CC(=O)O)C(=O)N[C@@H](Cc1ccccc1)C(N)=O
B8 was tested, and the “Relative Receptor Potency” value [1] was 0.

B9: N-α-#-[Leu15] Gastrin-17 (9-17) (peptide)
peptide: {C18 diacid-γGlu-AEEA-AEEA}-EEAYGWLDF-NH2
modifications: ends and bridges not checked
In the case of B9, the “Relative Receptor Potency” value [1] is reported as 30.

B10: [Lys6(N-ε-#),Leu15] Gastrin-17 (peptide)
peptide: QGPWLK([AEEA-AEEA-γGlu-C18 diacid])EEEEAYGWLDF-NH2
modifications: ends and bridges not checked
For B10, the “Relative Receptor Potency” value [2] was 40.

B11: [Lys17(N-ε-#), Leu 15] Gastrin-17 (peptide)
peptide: QGPWLEEEEEAYGWLDK([AEEA-AEEA-γGlu-C18 diacid])-NH2
modifications: ends and bridges not checked
B11 was tested, and the “Relative Receptor Potency” value [2] was 0.

B12: N-α-#-[Leu15] Gastrin-17 (4-17) (peptide)
peptide: {C18 diacid-γGlu-AEEA-AEEA}-WLEEEEEAYGWLDF-NH2
modifications: ends and bridges not checked
B12 was tested, and the “Relative Receptor Potency” value [1] was 58.

B13: N-α-#-[Leu15] Gastrin-17 (7-17) (peptide)
peptide: {C18 diacid-γGlu-AEEA-AEEA}-EEEEAYGWLDF-NH2
modifications: ends and bridges not checked
B13 was tested, and the “Relative Receptor Potency” value [1] was 39.

B14: [Lys12(N-ε-#),Leu15] Gastrin-17 (peptide)
peptide: QGPWLEEEEEAK([AEEA-AEEA-γGlu-C18 diacid])GWLDF-NH2
modifications: ends and bridges not checked
For B14, the “Relative Receptor Potency” value [2] was 6.

B15: N-α-#-[Leu15] Gastrin-17 (14-17) (peptide)
peptide: {C18 diacid-γGlu-AEEA-AEEA}-WLDF-NH2
SMILES: CC(C)C[C@H](NC(=O)[C@H](Cc1c[nH]c2ccccc12)NC(=O)COCCOCCNC(=O)COCCOCCNC(=O)CC[C@H](NC(=O)CCCCCCCCCCCCCCCCC(=O)O)C(=O)O)C(=O)N[C@@H](CC(=O)O)C(=O)N[C@@H](Cc1ccccc1)C(N)=O
B15 was tested, and the “Relative Receptor Potency” value [1] was 0.

B16: [Lys15(N-ε-#)] Gastrin-17 (peptide)
peptide: QGPWLEEEEEAYGWK([AEEA-AEEA-γGlu-C18 diacid])DF-NH2
modifications: ends and bridges not checked
For B16, the “Relative Receptor Potency” value [2] was 0.

B17: [Lys16(N-ε-#),Leu15] Gastrin-17 (peptide)
peptide: QGPWLEEEEEAYGWLK([AEEA-AEEA-γGlu-C18 diacid])F-NH2
modifications: ends and bridges not checked
For B17, the “Relative Receptor Potency” value [2] was 0.

B18: [Lys4(N-ε-#),Leu15] Gastrin-17 (peptide)
peptide: QGPK([AEEA-AEEA-γGlu-C18 diacid])LEEEEEAYGWLDF-NH2
modifications: ends and bridges not checked
In the case of B18, the “Relative Receptor Potency” value [2] is reported as 30.

B19: [Lys13(N-ε-#),Leu15] Gastrin-17 (peptide)
peptide: QGPWLEEEEEAYK([AEEA-AEEA-γGlu-C18 diacid])WLDF-NH2
modifications: ends and bridges not checked
In the case of B19, the “Relative Receptor Potency” value [2] is reported as 5.
